Test [1] addresses endogenous human ActRIIB on cells (human) (UniProt Q13705). As to the kind of experiment: cell-based or functional assay.
Test [2] addresses T1, human Activin RIB (ALK-4)/Fc (human, UniProt P36896 24-126).
T1 construct: Bought counter-target
T1 sequence (looked up): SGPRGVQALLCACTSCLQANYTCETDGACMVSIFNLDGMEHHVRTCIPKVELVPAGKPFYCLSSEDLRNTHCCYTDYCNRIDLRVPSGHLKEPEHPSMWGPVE
As to the kind of experiment: specificity ELISA on coated recombinant protein. (An ELISA detects its analyte on a solid surface through an enzyme-linked reagent.)
Experimental: (§1) The specificity of anti-ActRIIB Fab antibodies to human ActRIIB and crossreactivity to human ActRIIA and mouse ActRIIB is evaluated in an ELISA setting. Additionally, binding to related receptors (counter-targets: human TGF-βRII/Fc (R&D systems), mouse TGF-βRI (ALK-5)/Fc (R&D systems), human Activin RIB (ALK-4)/Fc (R&D systems)) is determined. For this 5 μg/ml (if not stated otherwise) of the recombinant proteins diluted in PBS are added to a black 96-well flat-bottom MaxiSorp™ plate and incubated over night at 4° C. for coating.
(§2) The next morning, the plates are washed with TBST and blocked with MTBST. After washing the plates several times, 5 μg/ml anti-ActRIIB Fab are added and incubated for 2.5 hrs. Subsequently antigen bound Fabs are detected by incubation with alkaline phosphatase conjugated goat-anti-human IgG Fab-specific, followed by addition of AttoPhos fluorescence substrate.

Another test deals with T2, human TGF-βRII/Fc (human, UniProt P37173 24-159).
T2 construct: Bought counter-target
As to the kind of experiment: specificity ELISA on coated recombinant protein.

The target in another test is T3, mouse TGF-βRI (ALK-5)/Fc (mouse, UniProt Q64729 30-125, limits assumed).
T3 construct: Bought counter-target
T3 sequence (looked up): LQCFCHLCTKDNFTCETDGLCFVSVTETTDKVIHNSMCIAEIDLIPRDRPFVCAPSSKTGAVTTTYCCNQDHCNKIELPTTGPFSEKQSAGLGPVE
Briefly: specificity ELISA on coated recombinant protein.

Sequence of endogenous human ActRIIB on cells (human) (Q13705 19-512 E459A limits assumed): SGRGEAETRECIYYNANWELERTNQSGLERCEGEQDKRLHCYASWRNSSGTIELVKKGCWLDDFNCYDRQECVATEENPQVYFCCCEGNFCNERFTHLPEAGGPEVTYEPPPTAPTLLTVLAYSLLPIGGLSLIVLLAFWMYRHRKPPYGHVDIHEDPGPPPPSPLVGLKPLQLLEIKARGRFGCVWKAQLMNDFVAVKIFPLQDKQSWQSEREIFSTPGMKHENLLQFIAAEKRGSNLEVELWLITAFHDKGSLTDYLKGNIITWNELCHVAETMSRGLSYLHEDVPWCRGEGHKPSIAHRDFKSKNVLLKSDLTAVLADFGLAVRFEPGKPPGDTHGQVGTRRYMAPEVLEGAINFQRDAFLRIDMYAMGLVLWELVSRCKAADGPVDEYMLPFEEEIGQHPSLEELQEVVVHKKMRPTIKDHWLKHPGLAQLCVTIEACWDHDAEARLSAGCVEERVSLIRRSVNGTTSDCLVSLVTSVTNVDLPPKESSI
T2 sequence (P37173 24-159 limits assumed): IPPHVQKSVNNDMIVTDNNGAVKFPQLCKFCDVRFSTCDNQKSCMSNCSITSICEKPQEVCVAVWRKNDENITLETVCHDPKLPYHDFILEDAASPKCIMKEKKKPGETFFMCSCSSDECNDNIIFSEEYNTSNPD
Experimental for human TGF-βRII/Fc: as §1, §2
Experimental for mouse TGF-βRI (ALK-5)/Fc: as §1, §2

B1: GDF-11 (ligand, UniProt O95390 299-407, looked up)
chain: NLGLDCDEHSSESRCCRYPLTVDFEAFGWDWIIAPKRYKANYCSGQCEYMFMQKYPHTHLVQQANPRGSAGPCCTPTKMSPINMLYFNDKQQIIYGKIPGMVVDRCGCS
In the case of B1, in test [1], the Emax of ligand-induced inhibition of skeletal muscle differentiation in the presence of MOR08159 (10 µg/ml) came out at 22.1 % control; the Emax of ligand-induced inhibition of skeletal muscle differentiation in the presence of MOR08213 (10 µg/ml) is 27.1 % control; the Emax of ligand-induced inhibition of skeletal muscle differentiation, no Ab amounted to 23.2 % control; the IC50 of ligand-induced inhibition of skeletal muscle differentiation in the presence of MOR08159 (10 µg/ml) is 0.0133 µg/mL. In test [1], the IC50 of ligand-induced inhibition of skeletal muscle differentiation in the presence of MOR08213 (10 µg/ml) came out at 0.012 µg/mL and the IC50 of ligand-induced inhibition of skeletal muscle differentiation, no Ab turned out to be 0.007 µg/mL.

B2: Activin A (ligand, UniProt P08476 311-426, looked up)
chain: GLECDGKVNICCKKQFFVSFKDIGWNDWIIAPSGYHANYCEGECPSHIAGTSGSSLSFHSTVINHYRMRGHSPFANLKSCCVPTKLRPMSMLYYDDGQNIIKKDIQNMIVEECGCS
In the case of B2, in test [1], the Emax of ligand-induced inhibition of skeletal muscle differentiation in the presence of MOR08159 (10 µg/ml) amounted to 61.9 % control; the Emax of ligand-induced inhibition of skeletal muscle differentiation in the presence of MOR08213 (10 µg/ml) came to 57.2 % control; the Emax of ligand-induced inhibition of skeletal muscle differentiation, no Ab turned out to be 37.1 % control; the IC50 of ligand-induced inhibition of skeletal muscle differentiation in the presence of MOR08159 (10 µg/ml) worked out at 0.0347 µg/mL. Besides, in test [1], the IC50 of ligand-induced inhibition of skeletal muscle differentiation in the presence of MOR08213 (10 µg/ml) came out at 0.0419 µg/mL and the IC50 of ligand-induced inhibition of skeletal muscle differentiation, no Ab is 0.0147 µg/mL.

B3: MOR07079 Fab (Fab, V domains shown)
VH: QVQLVQSGAEVKKPGASVKVSCKASGYTFTSSYINWVRQAPGQGLEWMGTINPVSGNTSYAQKFQGRVTMTRDTSISTAYMELSSLRSEDTAVYYCARGGWFDYWGQGTLVTVSS
VL: DIALTQPASVSGSPGQSITISCTGTSSDVGSYNYVNWYQQHPGKAPKLMIYGVSKRPSGVSNRFSGSKSGNTASLTISGLQAEDEADYYCQAWTSKMAGVFGGGTKLTVL
notes: Parental HuCAL GOLD Fab (Fab-FH format from pMORPH X9_FH vector); also called MOR7079; Fab-FH
Turning to B3, the binding result (in test [2]; with human TGF-βRII/Fc; with mouse TGF-βRI (ALK-5)/Fc) was “no binding (tested: 5 µg/ml Fab)” in each case.
